Measurements: the supplement of paper PMC9112550, “Optimization of the antimicrobial peptide Bac7 by deep mutational scanning” (BMC Biology, 2022)

tested on: Escherichia coli TOP10; experiment: shrunken log2 fold change of peptide-encoding DNA abundance (4.5 h post-induction vs induction); higher = less antimicrobial activity (less host growth inhibition); conditions: time post-induction: 4.5 h; library: site-saturation at positions 5, 18, 19, 20
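Also: peptides expressed intracellularly from a pBAD plasmid library in pooled LB shake-flask culture, induced with 0.3% L-arabinose, DNA abundance read by NGS, three biological replicates, DESeq2 with apeglm shrinkage.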

| Sequence | shrunken log2 fold change |
| --- | --- |
| RRIRSRPPRLPRPRPRPVSQPRP | -0.0165 |
| RRIRSRPPRLPRPRPRPSWYPRP | -0.745 |
| RRIRVRPPRLPRPRPRPEFKPRP | 0.0262 |
| RRIRPRPPRLPRPRPRPDDTPRP | -0.085 |
| RRIRARPPRLPRPRPRPCQLPRP | -0.0907 |
| RRIRKRPPRLPRPRPRPGTYPRP | -0.0508 |
| RRIRKRPPRLPRPRPRPANWPRP | 0.596 |
| RRIRARPPRLPRPRPRPAVTPRP | 0.214 |
| RRIRIRPPRLPRPRPRPKPVPRP | 0.101 |
| RRIRERPPRLPRPRPRPNARPRP | -0.0167 |
| RRIRARPPRLPRPRPRPYDWPRP | 0.0315 |
| RRIRRRPPRLPRPRPRPLDVPRP | 0.179 |
| RRIRDRPPRLPRPRPRPPMDPRP | 0.28 |
| RRIRHRPPRLPRPRPRPMHWPRP | -0.134 |
| RRIRFRPPRLPRPRPRPGIDPRP | -0.0216 |
| RRIRLRPPRLPRPRPRPPQLPRP | 0.206 |
| RRIRKRPPRLPRPRPRPMFMPRP | -0.116 |
| RRIRPRPPRLPRPRPRPKKEPRP | 0.0526 |
| RRIRSRPPRLPRPRPRPKKLPRP | 0.0709 |
| RRIRDRPPRLPRPRPRPTFKPRP | -0.0434 |
| RRIRFRPPRLPRPRPRPALTPRP | 0.248 |
| RRIRTRPPRLPRPRPRPMEVPRP | 0.117 |

| Sequence | shrunken log2 fold change |
| --- | --- |
| RRIRERPPRLPRPRPRPRFTPRP | 1.87 |
| RRIRIRPPRLPRPRPRPYLSPRP | -0.0357 |
| RRIRCRPPRLPRPRPRPWPLPRP | 0.222 |
| RRIRGRPPRLPRPRPRPLQIPRP | 0.803 |
| RRIRTRPPRLPRPRPRPYVQPRP | -0.0752 |
| RRIRRRPPRLPRPRPRPRKQPRP | -0.0686 |
| RRIRYRPPRLPRPRPRPDCHPRP | -0.0362 |
| RRIRPRPPRLPRPRPRPNWVPRP | -0.2 |
| RRIRKRPPRLPRPRPRPCVAPRP | 0.223 |
| RRIRMRPPRLPRPRPRPGLFPRP | 0.236 |
| RRIRKRPPRLPRPRPRPMSYPRP | -0.0167 |
| RRIRQRPPRLPRPRPRPFEAPRP | -0.0497 |
| RRIRIRPPRLPRPRPRPIVQPRP | -0.158 |
| RRIRVRPPRLPRPRPRPSYVPRP | -0.66 |
| RRIRNRPPRLPRPRPRPPYMPRP | -1.13 |
| RRIRLRPPRLPRPRPRPEGNPRP | -0.149 |
| RRIRMRPPRLPRPRPRPPKTPRP | 0.891 |
| RRIRTRPPRLPRPRPRPHNEPRP | -0.581 |
| RRIRARPPRLPRPRPRPSCGPRP | 0.287 |
| RRIRERPPRLPRPRPRPMGWPRP | -0.218 |
| RRIRIRPPRLPRPRPRPTNNPRP | -0.629 |
| RRIRGRPPRLPRPRPRPDRAPRP | 1.04 |

| Sequence | shrunken log2 fold change |
| --- | --- |
| RRIRQRPPRLPRPRPRPACFPRP | 0.315 |
| RRIRLRPPRLPRPRPRPQELPRP | -0.0432 |
| RRIRLRPPRLPRPRPRPMSSPRP | 0.0128 |
| RRIRIRPPRLPRPRPRPGTEPRP | -0.0203 |
| RRIRHRPPRLPRPRPRPEMPPRP | -0.177 |
| RRIRNRPPRLPRPRPRPPSEPRP | -0.147 |
| RRIRVRPPRLPRPRPRPGEVPRP | 0.101 |
| RRIRARPPRLPRPRPRPGCWPRP | 0.965 |
| RRIRLRPPRLPRPRPRPGIPPRP | 0.215 |
| RRIRRRPPRLPRPRPRPNQKPRP | -0.128 |
| RRIRYRPPRLPRPRPRPNFSPRP | -0.401 |
| RRIRFRPPRLPRPRPRPFSWPRP | -0.00262 |
| RRIRGRPPRLPRPRPRPKCFPRP | 0.852 |
| RRIRDRPPRLPRPRPRPPWWPRP | 0.461 |
| RRIRHRPPRLPRPRPRPRCDPRP | 0.128 |
| RRIRERPPRLPRPRPRPCICPRP | -0.0733 |
| RRIRSRPPRLPRPRPRPNFRPRP | -0.113 |
| RRIRHRPPRLPRPRPRPGLGPRP | 0.404 |
| RRIRCRPPRLPRPRPRPYFWPRP | -0.347 |
| RRIRWRPPRLPRPRPRPGICPRP | 0.146 |
| RRIRARPPRLPRPRPRPLRVPRP | 3.15 |
| RRIRLRPPRLPRPRPRPGLMPRP | -0.0199 |

| Sequence | shrunken log2 fold change |
| --- | --- |
| RRIRCRPPRLPRPRPRPISFPRP | -0.113 |
| RRIRMRPPRLPRPRPRPGIWPRP | 0.379 |
| RRIRMRPPRLPRPRPRPKRRPRP | 1.02 |
| RRIRIRPPRLPRPRPRPESNPRP | 0.0344 |
| RRIRWRPPRLPRPRPRPSYAPRP | 0.0124 |
| RRIRVRPPRLPRPRPRPTHYPRP | -0.0832 |
| RRIRLRPPRLPRPRPRPKHGPRP | -0.0363 |
| RRIRLRPPRLPRPRPRPLAIPRP | 0.221 |
| RRIRLRPPRLPRPRPRPHKSPRP | -0.399 |
| RRIRSRPPRLPRPRPRPRIAPRP | 0.174 |
| RRIRKRPPRLPRPRPRPNLTPRP | -0.112 |
| RRIRFRPPRLPRPRPRPKKNPRP | 0.0769 |
| RRIRIRPPRLPRPRPRPFNRPRP | 0.0284 |
| RRIRMRPPRLPRPRPRPTWQPRP | 0.288 |
| RRIRERPPRLPRPRPRPSSWPRP | -0.0518 |
| RRIRYRPPRLPRPRPRPICPPRP | -0.471 |
| RRIRQRPPRLPRPRPRPWCMPRP | -0.342 |
| RRIRNRPPRLPRPRPRPECIPRP | 2.1 |
| RRIRPRPPRLPRPRPRPCPGPRP | -0.0306 |
| RRIRLRPPRLPRPRPRPNVSPRP | -0.0595 |
| RRIRIRPPRLPRPRPRPESSPRP | -0.0745 |
| RRIRSRPPRLPRPRPRPRLSPRP | 0.00425 |

| Sequence | shrunken log2 fold change |
| --- | --- |
| RRIRFRPPRLPRPRPRPWYWPRP | -0.34 |
| RRIRQRPPRLPRPRPRPCEMPRP | -0.00121 |
| RRIRHRPPRLPRPRPRPNLMPRP | 0.0972 |
| RRIRLRPPRLPRPRPRPPHSPRP | 0.0872 |
| RRIRKRPPRLPRPRPRPNPTPRP | 0.249 |
| RRIRIRPPRLPRPRPRPVKRPRP | -0.09 |
| RRIRYRPPRLPRPRPRPVPNPRP | -0.0518 |
| RRIRSRPPRLPRPRPRPITAPRP | -0.0161 |
| RRIRHRPPRLPRPRPRPLMLPRP | -0.0972 |
| RRIRWRPPRLPRPRPRPKLGPRP | 0.0872 |
| RRIRWRPPRLPRPRPRPITSPRP | -0.122 |
| RRIRGRPPRLPRPRPRPKGGPRP | 0.901 |
| RRIRNRPPRLPRPRPRPGRVPRP | 0.296 |
| RRIRKRPPRLPRPRPRPAELPRP | 0.552 |
| RRIRRRPPRLPRPRPRPFRIPRP | 0.101 |
| RRIRTRPPRLPRPRPRPFTDPRP | 0.00943 |
| RRIRRRPPRLPRPRPRPPGWPRP | -0.0607 |
| RRIRKRPPRLPRPRPRPDKHPRP | 0.0337 |
| RRIRLRPPRLPRPRPRPEGRPRP | 1.11 |
| RRIRVRPPRLPRPRPRPYAWPRP | 0.0346 |
| RRIRIRPPRLPRPRPRPQRDPRP | 0.0634 |
